Patent US20240325555A1 (LANOVA MEDICINES, published 2024)

T1: human LIV-1 (human, UniProt Q13433 29-755)
T1 construct: whole, on cells; also called H-LIV1
T1 sequence (looked up): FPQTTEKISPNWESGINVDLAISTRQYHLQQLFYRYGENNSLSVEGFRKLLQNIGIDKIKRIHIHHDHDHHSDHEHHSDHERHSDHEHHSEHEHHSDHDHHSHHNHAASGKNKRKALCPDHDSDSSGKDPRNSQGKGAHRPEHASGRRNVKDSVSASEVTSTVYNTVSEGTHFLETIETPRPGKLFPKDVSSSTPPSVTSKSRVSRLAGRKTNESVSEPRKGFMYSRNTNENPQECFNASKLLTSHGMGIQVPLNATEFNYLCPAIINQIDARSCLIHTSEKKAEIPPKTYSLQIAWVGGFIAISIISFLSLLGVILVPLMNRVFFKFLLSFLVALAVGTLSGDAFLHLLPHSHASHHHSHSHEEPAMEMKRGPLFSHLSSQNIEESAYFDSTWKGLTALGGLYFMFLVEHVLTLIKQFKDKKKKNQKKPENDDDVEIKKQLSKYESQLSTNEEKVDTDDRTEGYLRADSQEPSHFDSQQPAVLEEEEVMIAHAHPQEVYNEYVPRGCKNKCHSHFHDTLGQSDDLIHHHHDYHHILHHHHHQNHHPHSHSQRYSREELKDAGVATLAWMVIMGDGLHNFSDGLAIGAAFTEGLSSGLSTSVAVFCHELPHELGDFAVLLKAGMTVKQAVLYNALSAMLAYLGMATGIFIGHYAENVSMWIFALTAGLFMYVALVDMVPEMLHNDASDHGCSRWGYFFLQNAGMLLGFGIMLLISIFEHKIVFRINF


What was measured:
human LIV-1 [1] = target: T1, human LIV-1; test: FACS, BT20/H_LIV-1 Low cells
Method: (§1) Cell based binding of ADC and naked of ADC on human LIV-1 expressing cells were assessed using flow cytometry. Briefly, HEK293/H_LIV-1, both low- and high-expressing H-LIV1-positive cell lines were incubated with ADC and naked of ADC (from 100 nM, 6 folds dilution, 8 points), respectively. After incubation at 4° C. for 60 minutes, the cells were washed with FACS buffer twice, then stained with fluorescent conjugated secondary antibody at 4° C. for 30 minutes. After that the cells were washed twice and analyzed by flow cytometry.

human LIV-1 [2] = target: T1, human LIV-1; test: FACS, HEK293/H_LIV-1 cells
Method: as §1

human LIV-1 [3] = target: T1, human LIV-1; test: FACS, BT20/H_LIV-1 High cells
Method: as §1

human LIV-1 [4] = target: T1, human LIV-1; test: cell-based or functional assay
human LIV-1 [5] = target: T1, human LIV-1; test: FACS, HEK293/H_LIV-1 cells; remark: listed apart in the source
In short: (§2)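 HEK293 cells over-expressing human or cyno LIV-1 incubated with chimeric Abs (from 100 nM, 5-fold dilutions, 8 points) for 60 min at 4 °C, then fluorescent secondary antibody 30 min at 4 °C; washes in 2% FBS/PBS. Binding read by flow cytometry; EC50 from the titration curve.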

cynomolgus LIV-1 = cynomolgus LIV-1 (cynomolgus, UniProt A0A2K5WH46 30-741); test: FACS, HEK293/Cyno_LIV-1 cells
In short: as §2

human LIV-1 [6] = target: T1, human LIV-1; test: cell-based or functional assay; remark: listed apart in the source
human LIV-1 [7] = target: T1, human LIV-1; test: cell-based or functional assay; remark: listed apart in the source
human LIV-1 [8] = target: T1, human LIV-1; test: cell-based or functional assay; remark: listed apart in the source

Binder | EC50 (human LIV-1 [1]) [nM] | Top (MFI) (human LIV-1 [1]) | EC50 (human LIV-1 [2]) [nM] | Top (MFI) (human LIV-1 [2]) | EC50 (human LIV-1 [3]) [nM] | Top (MFI) (human LIV-1 [3]) | Min cell viability %, BT20/H_LIV-1 High (human LIV-1 [4]) [%] | Min cell viability %, BT20/H_LIV-1 Low (human LIV-1 [4]) [%] | Min cell viability %, HEK293/H_LIV-1 (human LIV-1 [4]) [%] | EC50 (human LIV-1 [5]) [nM] | Top (MFI) (human LIV-1 [5]) | EC50 (cynomolgus LIV-1) [nM] | Top (MFI) (cynomolgus LIV-1) | Cell viability(%) (human LIV-1 [6]) | Cytotoxicity IC50 (human LIV-1 [6]) [nM] | Internalization EC50 (human LIV-1 [7]) [nM] | Internalization Top (RFU) (human LIV-1 [7]) | ADCC reporter EC50 (human LIV-1 [8]) [nM] | ADCC reporter Top (RFU) (human LIV-1 [8])
5D6B10.z7-Eribulin (antibody, V domains shown, Eribulin drug moiety conjugated; site and chain not stated, Antibody-drug conjugate of 5D6B10.z7; human gamma 1/kappa) VH: QVQLVQSGGGVVQPGRSLRLSCTVSGFSLTTYGIHWVRQSPGKGLEWLGVIWTGGTTDYNAAFISRLTISKDNSKSTVYFQMNSLQAEDTAIYYCARGPSSYWGQGTLVTVSS VL: EIVMTQSPATLSVSPGERATLSCKASQNVDTNVVWYQQKPGQSPRALIYSASYRYSGVPARFSGSGSGTEFTLTISSLQSEDFAVYFCQQYNNYPWTFGQGTKVEIK | 0.5 | 37200 | 0.47 | 98700 | 0.87 | 154000 | 31.5 | 42.9 | 21.2 | – | – | – | – | – | – | – | – | – | –
5D6B10.z7-MMAE (antibody, V domains shown, MMAE drug moiety conjugated; site and chain not stated, Antibody-drug conjugate of 5D6B10.z7; human gamma 1/kappa) VH: QVQLVQSGGGVVQPGRSLRLSCTVSGFSLTTYGIHWVRQSPGKGLEWLGVIWTGGTTDYNAAFISRLTISKDNSKSTVYFQMNSLQAEDTAIYYCARGPSSYWGQGTLVTVSS VL: EIVMTQSPATLSVSPGERATLSCKASQNVDTNVVWYQQKPGQSPRALIYSASYRYSGVPARFSGSGSGTEFTLTISSLQSEDFAVYFCQQYNNYPWTFGQGTKVEIK | 0.5 | 35300 | 0.51 | 96400 | 0.98 | 149000 | 28.4 | 43.5 | 15 | – | – | – | – | – | – | – | – | – | –
124H4D11.p2.z4-Eribulin (antibody, V domains shown, Eribulin drug moiety conjugated; site and chain not stated, Antibody-drug conjugate of 124H4D11.p2.z4; human gamma 1/kappa) VH: QVQLVQSGAEVVKPGASVKVSCKASGFNIKDYYMHWVRQAPGQGLEWIGWIDPENDDTEYDPKFQGRVTMTADTSTSTVYMELSSLRSEDTAVYYCAARYYAFDYWGQGTMVTVSS VL: DVLMTQSPLSLPVTLGQPASISCRSSQSIVHSNANTYLEWYLQRPGQSPRLLIYKVSNRFSGVPDRFSGSGSGTDFTLKISRVEAEDVGVYYCFQGSQVPPTFGQGTKLEIK | 0.05 | 3100 | 0.1 | 19400 | 0.1 | 19200 | 20.7 | 37.9 | 21.5 | – | – | – | – | – | – | – | – | – | –
124H4D11.p2.z4-MMAE (antibody, V domains shown, MMAE drug moiety conjugated; site and chain not stated, Antibody-drug conjugate of 124H4D11.p2.z4; human gamma 1/kappa) VH: QVQLVQSGAEVVKPGASVKVSCKASGFNIKDYYMHWVRQAPGQGLEWIGWIDPENDDTEYDPKFQGRVTMTADTSTSTVYMELSSLRSEDTAVYYCAARYYAFDYWGQGTMVTVSS VL: DVLMTQSPLSLPVTLGQPASISCRSSQSIVHSNANTYLEWYLQRPGQSPRLLIYKVSNRFSGVPDRFSGSGSGTDFTLKISRVEAEDVGVYYCFQGSQVPPTFGQGTKLEIK | 0.07 | 3420 | 0.08 | 20200 | 0.11 | 20000 | 18.6 | 40.3 | 15.8 | – | – | – | – | – | – | – | – | – | –
290F10G10.z2-Eribulin (antibody, V domains shown, Eribulin drug moiety conjugated; site and chain not stated) VH: EVQLVQSGAEVKKPGASVKVSCKASGYTFTSYWIHWVRQAPGQGLEWMGTIYPGDADTRSTQKFKDRVTMTADTSTSTVYMELSSLRSEDTAVYYCARSLIHDDYDKYYFDYWGQGTTVTVSS VL: DIQMTQSPSSLSASVGDRVTITCKARQDINKYIAWYQQKPGKAPKLLIHYTSILQPGIPSRFSGSGSGRDYTFTISSLQPEDIATYYCLQYDYFFTFGGGTKVEIK | 1.14 | 3620 | 0.55 | 18800 | 1.2 | 21000 | 17.6 | 38.4 | 18.4 | – | – | – | – | – | – | – | – | – | –
108H1D4 (antibody, V domains shown, Tested as chimeric antibody) VH: EVKLVESGGDLVQPGGSRKLSCAASGFTFSDYGMAWFRQAPGKGPEWVAFISNLAYNIYYADTVTGRFTISRENARNTLYLEMSSLRSEDTAMYYCAREGGITTVPATDYFDYWGQGTTLTVSS VL: DIQMTQTTSSLSASLGDRVTFSCRASQDIRNYLNWYQQKPDGTVKLLIYYTSRLHSGVPSRFSGSGSGTDYSLTINNLEQEDLATYFCQQVNALPLTFGAGTKLELK | – | – | – | – | – | – | – | – | – | 0.9 | 8800 | 130 | 762 | 17.3 | 0.7 | 4.8 | 511000 | 8.3 | 139000
135C6E7 (antibody, V domains shown, Tested as chimeric antibody) VH: EVQLVESGGGLVQPKGSLKLSCAASGFTFNTYAMNWVRQAPGKGLEWVARIRSKYNSYATYYADSVKDRFTISRDDSQSILYLQMNNLKTEDTAMYYCVRHEDYDGGFAYWGQGTLVTVSA VL: DIVMSQSPSSLAVSVGEKVTMSCKSSQSLFKSRTRKNYLAWYQQKPGQSPKLLIYWASTRESGVPDRFTGSGSGTDFTLTISSVQAEDLAVYYCKESYNLMYTFGGGTKLEIK | – | – | – | – | – | – | – | – | – | 3.6 | 16500 | 2.69 | 6290 | 17.6 | 4.6 | 12.4 | 675000 | 6.4 | 53100
286B5E6 (antibody, V domains shown, Tested as chimeric antibody) VH: not shown VL: DIVLTQSPASLAVSLGQRATISCKASQSVDYDGDSYMNWYQQKPGQPPKLLIYAASNLESGIPARFSGSGSGTDFTLNIHPVEEEDAATYYCQQSNEGPYTFGGGTKLEIK | – | – | – | – | – | – | – | – | – | 0.32 | 8090 | 0.55 | 2490 | 4.88 | 1.39 | 4.6 | 448000 | 1.1 | 47800
293F10B6 (antibody, V domains shown, Tested as chimeric antibody) VH: QVTLKESGPGMLQPSQTLNLTCSFSGFSLNTSGMGVSWIRQPSGKGLEWLAHIFWDDDKRYNPSLKSRLTISKDVSSNQVFLKITSVDTADTATYFCARRARNNYPWFPYWGQGTLVTVSA VL: DIVLTQSPASLAVSLGQRATISCKASQSVDYDGDSYMNWYQQKPGQPPKLLIYAASNLDSGIPARFSGSGSGTDFTLNIHPMEDEDVATYYCQQSNGAPFTFGGGTKLEIK | – | – | – | – | – | – | – | – | – | 0.45 | 8100 | 0.98 | 2250 | 3.41 | 1.46 | 6.1 | 495000 | 7.9 | 133000
282G5A2 (antibody, V domains shown, Tested as chimeric antibody) VH: QVQLQQSGAELVRPGTSVKVSCKASGYALTKYLIEWIKQRPGQGLEWIGVINPGNAGNNYNEKFKGKATLTVDQSSSTAYMQLSSLTSEDSAVYFCARRGRDYAMDNWGQGTSVTVSS VL: EIVLTQSPAIMSASLGEKVTMSCRASSSINYIYWYQQKSDASPKLWIYYTSNLAPGVPARFSGSGSGNSYSLTISSMEDEDAATYYCQQFTSSPLTFGAGTKLELK | – | – | – | – | – | – | – | – | – | 1.12 | 19700 | 0.87 | 13000 | 8.58 | 12.1 | 41.2 | 227000 | 1.2 | 11300
248H1G3 (antibody, V domains shown, Tested as chimeric antibody) VH: EVQLQQSGPELMKRGASVKISCKTSTFTFTEFTIHWVKQSHGKSLEWIGGINPNTGGTSYNQNFTGKATLTVDKSSITAYMELRSLTSEDSAIYYCAPNWDGYWFFDVWGAGTTVTVSS VL: DIQMTQSPASLSASVGETVTITCRASGNIQNYLAWYQQKQGKSPQLLVYGAKTLADGVPSRFSGSGSGTQFSLKINSLQPEDFGSYYCQHFWSPPLTFGAGTKLELK | – | – | – | – | – | – | – | – | – | 0.89 | 9640 | 2.05 | 2700 | 3.31 | 2.99 | 4.6 | 357000 | 0.5 | 61600
